For the assay, the target named is E2-E1 heterodimer of WT Sindbis virus (strain TE12) (Sindbis virus) (UniProt P03316). The assay can be described thus: cryo-EM structure.

For orientation: stoichiometry N means the number of molecules, sites or subunits per partner or assembly.

Substance “E2-E1 heterodimer of WT Sindbis virus (strain TE12) (from UniProt P03316 807-1245) (complex)” had a stoichiometry N of 3.

For the origin of these results see doi:10.1101/2021.09.02.458808.
